Experimental data reported in the RNAGym collection of RNA variant scans (doi:10.1093/molbev/msab373).

B1: Azoarcus group I ribozyme (parent)
chain: GUGCCUUGCGCCGGGAAACCACGCAAGGGAUGGUGUCAAAUUCGGCGAAACCUAAGCGCCCGCCCGGGCGUAUGGCAACGCCGAGCCAAGCUUCGGCGCCUGCGCCGAUGAAGGUGUAGAGACUAGACGGCACCCACCUAAGGCAAACGCUAUGGUGAAGGCAUAGUCCAGGGAGUGGCGAAAGUCACACAAACCGG

Variants of: B1
Test: reverse-splicing fitness (ratio to wild type); higher = more active; in vitro selection; Mg2+ level not given
Outline: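 An in vitro group I ribozyme library with randomized positions was T7-transcribed and gel-purified. In triplicate, 10 pmol RNA in EPPS pH 7.5 was reacted with 50 pmoles of a 30-nt RNA substrate for 1 h at 37 °C across several added MgCl2 levels (1–48 mM), then stopped with EDTA. Products were reverse transcribed from a substrate-complementary primer, PCR-amplified and sequenced (HiSeq 4000). Fitness is a variant's read proportion after selection over that before, normalised to wild type.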

Variant	reverse-splicing fitness
GUGCCUUGCGCCGGGAAACCACGCAAGGGAUGGUGUCAAAUUCGGCGAAACCUAAGCGCCCGCCCGGGCGUAUGGCAACGCUGAGCCAAGCUUCGGCGCCUGCGCCGAUGAAGGUGUAGAGACUAGACGGCACCCACCUAAGGCGAACGUUAUGGUGAAGGCAUAGUCUAGGGAGAGGCGAAAGUCACACAAACCGG [C82U A145G C150U C169U U176A]	0.0142
GUGCCUUGCGCCGGGAAACCACGCAAGGGAUGGUGUCAAAUUCGGCGAAACCUAAGCGCCCGCCCGGGCGUAUGGCAACGCUGAGCCAAGCUUCGGCGCCUGCGCCGAUGAAGGUGUAGAGACUAGACGGCACCCACCUAAGGCGAACGUUAUGGUGAAGGCAUAGUCUAGGGAGCGGCGAAAGUCACACAAACCGG [C82U A145G C150U C169U U176C]	0.0134
GUGCCUUGCGCCGGGAAACCACGCAAGGGAUGGUGUCAAAUUCGGCGAAACCUAAGCGCCCGCCCGGGCGUAUGGCAACGCUGAGCCAAGCUUCGGCGCCUGCGCCGAUGAAGGUGUAGAGACUAGACGGCACCCACCUAAGGCGAACGUUAUGGUGAAGGCAUAGUCUAGGGAGGGGCGAAAGUCACACAAACCGG [C82U A145G C150U C169U U176G]	0.00493
GUGCCUUGCGCCGGGAAACCACGCAAGGGAUGGUGUCAAAUUCGGCGAAACCUAAGCGCCCGCCCGGGCGUAUGGCAACGCUGAGCCAAGCUUCGGCGCCUGCGCCGAUGAAGGUGUAGAGACUAGACGGCACCCACCUAAGGCGAACGCUAUGGUGAAGGCAUAGUCAAGGGAGAGGCGAAAGUCACACAAACCGG [C82U A145G C169A U176A]	0.0178
GUGCCUUGCGCCGGGAAACCACGCAAGGGAUGGUGUCAAAUUCGGCGAAACCUAAGCGCCCGCCCGGGCGUAUGGCAACGCUGAGCCAAGCUUCGGCGCCUGCGCCGAUGAAGGUGUAGAGACUAGACGGCACCCACCUAAGGCGAACGCUAUGGUGAAGGCAUAGUCAAGGGAGCGGCGAAAGUCACACAAACCGG [C82U A145G C169A U176C]	0.0258
GUGCCUUGCGCCGGGAAACCACGCAAGGGAUGGUGUCAAAUUCGGCGAAACCUAAGCGCCCGCCCGGGCGUAUGGCAACGCUGAGCCAAGCUUCGGCGCCUGCGCCGAUGAAGGUGUAGAGACUAGACGGCACCCACCUAAGGCGAACGGUAUGGUGAAGGCAUAGUCUAGGGAGGGGCGAAAGUCACACAAACCGG [C82U A145G C150G C169U U176G]	0.00689
GUGCCUUGCGCCGGGAAACCACGCAAGGGAUGGUGUCAAAUUCGGCGAAACCUAAGCGCCCGCCCGGGCGUAUGGCAACGCUGAGCCAAGCUUCGGCGCCUGCGCCGAUGAAGGUGUAGAGACUAGACGGCACCCACCUAAGGCGAACGGUAUGGUGAAGGCAUAGUCUAGGGAGCGGCGAAAGUCACACAAACCGG [C82U A145G C150G C169U U176C]	0.0132
GUGCCUUGCGCCGGGAAACCACGCAAGGGAUGGUGUCAAAUUCGGCGAAACCUAAGCGCCCGCCCGGGCGUAUGGCAACGCUGAGCCAAGCUUCGGCGCCUGCGCCGAUGAAGGUGUAGAGACUAGACGGCACCCACCUAAGGCGAACGGUAUGGUGAAGGCAUAGUCUAGGGAGAGGCGAAAGUCACACAAACCGG [C82U A145G C150G C169U U176A]	0.0125
GUGCCUUGCGCCGGGAAACCACGCAAGGGAUGGUGUCAAAUUCGGCGAAACCUAAGCGCCCGCCCGGGCGUAUGGCAACGCUGAGCCAAGCUUCGGCGCCUGCGCCGAUGAAGGUGUAGAGACUAGACGGCACCCACCUAAGGCGAACGUUAUGGUGAAGGCAUAGUCAAGGGAGCGGCGAAAGUCACACAAACCGG [C82U A145G C150U C169A U176C]	0.0136
GUGCCUUGCGCCGGGAAACCACGCAAGGGAUGGUGUCAAAUUCGGCGAAACCUAAGCGCCCGCCCGGGCGUAUGGCAACGCUGAGCCAAGCUUCGGCGCCUGCGCCGAUGAAGGUGUAGAGACUAGACGGCACCCACCUAAGGCGAACGUUAUGGUGAAGGCAUAGUCAAGGGAGGGGCGAAAGUCACACAAACCGG [C82U A145G C150U C169A U176G]	0.00522
GUGCCUUGCGCCGGGAAACCACGCAAGGGAUGGUGUCAAAUUCGGCGAAACCUAAGCGCCCGCCCGGGCGUAUGGCAACGCUGAGCCAAGCUUCGGCGCCUGCGCCGAUGAAGGUGUAGAGACUAGACGGCACCCACCUAAGGCGAACGUUAUGGUGAAGGCAUAGUCAAGGGAGAGGCGAAAGUCACACAAACCGG [C82U A145G C150U C169A U176A]	0.0158
GUGCCUUGCGCCGGGAAACCACGCAAGGGAUGGUGUCAAAUUCGGCGAAACCUAAGCGCCCGCCCGGGCGUAUGGCAACGCUGAGCCAAGCUUCGGCGCCUGCGCCGAUGAAGGUGUAGAGACUAGACGGCACCCACCUAAGGCGAACGUUAUGGUGAAGGCAUAGUCCAGGGAGGGGCGAAAGUCACACAAACCGG [C82U A145G C150U U176G]	0.0868
GUGCCUUGCGCCGGGAAACCACGCAAGGGAUGGUGUCAAAUUCGGCGAAACCUAAGCGCCCGCCCGGGCGUAUGGCAACGCUGAGCCAAGCUUCGGCGCCUGCGCCGAUGAAGGUGUAGAGACUAGACGGCACCCACCUAAGGCGAACGUUAUGGUGAAGGCAUAGUCCAGGGAGCGGCGAAAGUCACACAAACCGG [C82U A145G C150U U176C]	0.372
GUGCCUUGCGCCGGGAAACCACGCAAGGGAUGGUGUCAAAUUCGGCGAAACCUAAGCGCCCGCCCGGGCGUAUGGCAACGCUGAGCCAAGCUUCGGCGCCUGCGCCGAUGAAGGUGUAGAGACUAGACGGCACCCACCUAAGGCGAACGUUAUGGUGAAGGCAUAGUCCAGGGAGAGGCGAAAGUCACACAAACCGG [C82U A145G C150U U176A]	0.315
GUGCCUUGCGCCGGGAAACCACGCAAGGGAUGGUGUCAAAUUCGGCGAAACCUAAGCGCCCGCCCGGGCGUAUGGCAACGCUGAGCCAAGCUUCGGCGCCUGCGCCGAUGAAGGUGUAGAGACUAGACGGCACCCACCUAAGGCGAACGGUAUGGUGAAGGCAUAGUCUAGGGAGUGGCGAAAGUCACACAAACCGG [C82U A145G C150G C169U]	0.00979
